According to patent publication US20100273722A1, “MODIFIED MINIATURE PROTEINS” (Yale University, priority 2007, published 2010):

Target: Down-regulated Hck kinase (containing an N-terminal His6 tag)
Test: cell-based or functional assay

HIV Nef protein was tested, and the Activity (nmol · sec^-1), activator at 50 micromolar (nmol · sec^-1) was 232 and the Fold-Activation, activator at 50 micromolar was 21 fold.
